Article PMC6099280, “Characterisation of a putative glutamate 5‐kinase from Leishmania donovani” (The Febs Journal, 2018)

Assays:
LdG5K [1] = biological target: T1, LdG5K (Leishmania donovani, UniProt A0A0R6Y3I5); assay: PK/LDH-coupled NADH oxidation assay; assay type: biochemical
T1 construct: gene G5K; tetramer about 105 kDa
T1 sequence (A0A0R6Y3I5 1-263): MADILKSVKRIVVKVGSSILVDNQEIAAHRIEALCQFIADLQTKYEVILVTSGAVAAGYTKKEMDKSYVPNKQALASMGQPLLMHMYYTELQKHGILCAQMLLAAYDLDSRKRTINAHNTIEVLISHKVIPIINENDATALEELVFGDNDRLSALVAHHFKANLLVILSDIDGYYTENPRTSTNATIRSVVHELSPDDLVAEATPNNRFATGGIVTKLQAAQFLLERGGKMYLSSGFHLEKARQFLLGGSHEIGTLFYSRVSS
Source text: (§1) PK/LDH-coupled NADH oxidation assay on LdG5K

LdG5K [2] = biological target: T1, LdG5K; assay: PK/LDH-coupled NADH oxidation assay, single point; assay type: biochemical; conditions: 1 mM compound; 100 mM Na glutamate, 5 mM ATP, 5 mM MgCl2, pH 7.4, 25 °C
Source text: PK/LDH-coupled NADH oxidation assay, single point on LdG5K

[3] = substrate: N[C@@H](CCC(=O)O)C(=O)O; assay: PK/LDH-coupled NADH oxidation assay; assay type: biochemical, Leishmania donovani; conditions: 5 mM ATP, 5 mM MgCl2, pH 7.4, 25 °C, no proline
Source text: as §1

[4] = substrate: Nc1ncnc2c1ncn2[C@@H]1O[C@H](COP(=O)(O)OP(=O)(O)OP(=O)(O)O)[C@@H](O)[C@H]1O; assay: PK/LDH-coupled NADH oxidation assay; assay type: biochemical, Leishmania donovani; conditions: 150 mM Na glutamate, 5 mM MgCl2, pH 7.4, 25 °C
Source text: as §1

[5] = substrate: N[C@@H](CCC(=O)O)C(=O)O; assay: PK/LDH-coupled NADH oxidation assay, Hill fit; assay type: biochemical, Leishmania donovani; conditions: no proline, Hill slope 0.94 ± 0.09, pH 7.4, 25 °C
[6] = biological target: the molecule itself; assay: SEC; Superdex 200 H/R 10/30, 50 mM Tris-HCl pH 7.2, 0.15 M NaCl, 0.5 mL/min, room temperature; mass estimated against protein standards; no proline

Molecule: O=C(O)[C@@H]1CCN1 [L‐azetidine‐2‐carboxylic acid]
- IC50 (LdG5K [1]): 730 ± 70 µM

Molecule: O=C(O)[C@@H]1CCCN1 [L‐proline]
- IC50 (LdG5K [1]): 390 ± 80 µM

Molecule: O=C(O)C1C=CCN1 (racemic) [3,4‐dehydro‐D,L‐proline]
- IC50 (LdG5K [1]): 490 ± 20 µM

Molecule: O=C(O)[C@@H]1C[C@H](O)CN1 [Cis‐4‐hydroxy‐L‐proline]
- LdG5K activity (%) with 1 mM (LdG5K [2]): 87%

Molecule: O=C(O)[C@@H]1C[C@@H](O)CN1 [Trans‐4‐hydroxy‐L‐proline]
- LdG5K activity (%) with 1 mM (LdG5K [2]): 89%

Molecule: C[C@@]1(C(=O)O)CCCN1 [α‐methyl‐L‐proline]
- LdG5K activity (%) with 1 mM (LdG5K [2]): 82%

Molecule: O=C(O)[C@H]1CN[C@H](C(=O)O)C1 [L‐trans‐pyrrolidine‐2,4‐dicarboxylic acid]
- LdG5K activity (%) with 1 mM (LdG5K [2]): 84%

Molecule: O=C(O)[C@@H]1CSCN1 [L‐4‐thioproline]
- IC50 (LdG5K [1]): 1800 ± 200 µM

B1: Leishmania donovani glutamate 5-kinase (enzyme, UniProt A0A0R6Y3I5 1-263, looked up)
chain: T1 sequence (A0A0R6Y3I5 1-263)
notes: theoretical Mr 29.033 kDa; Cloned through BamHI/EcoRI into a modified pGEX-6P-1 with an in-frame N-terminal His-GST tag; also called LdG5K; G5K; source: E. coli C41(DE3) pLysS, purified (glutathione resin, on-column cleavage by PreScission protease); not shown: His, N-terminal, cleaved; GST, N-terminal, cleaved
- Km [3]: 10 ± 0.7 mM
- kcat [3]: 12.8 ± 0.3 s⁻¹
- kcat/Km [3]: 1280 M⁻¹ s⁻¹
- Km [4]: 0.6 ± 0.07 mM
- kcat [4]: 11.7 ± 0.3 s⁻¹
- kcat/Km [4]: 19500 M⁻¹ s⁻¹
- K0.5 [5]: 19.0 ± 2.9 mM
- kcat [5]: 13.5 ± 0.6 s⁻¹
- stoichiometry N [6]: 4
